According to patent US6635429B1:

Columns and labels:
[1] = biological target: bacterially-expressed hRAR-γ (human) (UniProt P13631); assay: complementation gel retardation with bacterially-expressed hRAR-γ on β-RARE; cpm in the complex per µg of protein of the purification step
[2] = biological target: mRXR-α (mouse)

Specific Activity (cpm/µg) [1] | OMPdecase activity of the DR1-URA3 reporter in yeast [2] | Binder
7.75e+06 cpm/µg | – | purified HeLa cell RBF (HAP-TSK) (receptor) MSWAARPPFLPQRHAAGQCGPVGVRKEMHCGVASRWRRRRPWLDPAAAAAAAVAGGEQQTPEPEPGEAGRDGMGDSGRDSRSPDSSSPNPLPQGVPPPSPPGPPLPPSTAPTLGGSGAPPPPPMPPPPLGSPFPVISSSMGSPGLPPPAPPGFSGPVSSPQINSTVSLPGGGSGPPEDVKPPVLGVRGLHCPPPPGGPGAGKRLCAICGDRSSGKHYGVYSCEGCKGFFKRTIRKDLTYSCRDNKDCTVDKRQRNRCQYCRYQKCLATGMKREAVQEERQRGKDKDGDGEGAGGAPEEMPVDRILEAELAVEQKSDQGVEGPGGTGGSGSSPNDPVTNICQAADKQLFTLVEWAKRIPHFSSLPLDDQVILLRAGWNELLIASFSHRSIDVRDGILLATGLHVHRNSAHSAGVGAIFDRVLTELVSKMRDMRMDKTELGCLRAIILFNPDAKGLSNPSEVEVLREKVYASLETYCKQKYPEQQGRFAKLLLRLPALRSIGLKCLEHLFFFKLIGDTPIDTFLMEMLEAPHQLA
– | 30 fold | mRXR-α (receptor) MDTKHFLPLDFSTQVNSSSLNSPTGRGSMAVPSLHPSLGPGIGSPLGSPGQLHSPISTLSSPINGMGPPFSVISSPMGPHSMSVPTTPTLGFGTGSPQLNSPMNPVSSTEDIKPPLGLNGVLKVPAHPSGNMASFTKHICAICGDRSSGKHYGVYSCEGCKGFFKRTVRKDLTYTCRDNKDCLIDKRQRNRCQYCRYQKCLAMGMKREAVQEERQRGKDRNENEVESTSSANEDMPVEKILEAELAVEPKTETYVEANMGLNPSSPNDPVTNICQAADKQLFTLVEWAKRIPHFSELPLDDQVILLRAGWNELLIASFSHRSIAVKDGILLATGLHVHRNSAHSAGVGAIFDRVLTELVSKMRDMQMDKTELGCLRAIVLFNPDSKGLSNPAEVEALREKVYASLEAYCKHKYPEQPGRFAKLLLRLPALRSIGLKCLEHLFFFKLIGDTPIDTFLMEMLEAPHQAT
